Sequences and labels used below:
B1: CROP (parent)
chain: VFGRGDNISDVSKFLEDDKWMEE

Protein stability index data for 97 variants are collected here from the supplement of paper PMC10567573.
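Note: lentivirally expressed fusions sorted by FACS into six bins by GFP to DsRed ratio, PSI derived from sequencing read proportions per bin multiplied by bin number.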

The data set covers variants of B1. Kind of data set: protein stability index of a GFP-peptide fusion (GPS, HEK-293T) (PSI 1-6); higher = more stable. The settings on record: c terminus: native.
For the variant WFGRGDNISDVSKFLEDDKWMEE [V1W], the protein stability index came to 3.69. For IFGRGDNISDVSKFLEDDKWMEE [V1I] the value was 1.43.

HFGRGDNISDVSKFLEDDKWMEE [V1H]: the protein stability index amounted to 2.59. For CFGRGDNISDVSKFLEDDKWMEE [V1C] the value was 1.97; for EFGRGDNISDVSKFLEDDKWMEE [V1E], 2.97; for NFGRGDNISDVSKFLEDDKWMEE [V1N], 2.25. For VFGRGDNISDVSKFLEKDKWMEE [D17K] the value was 2.83; for VFGRGDNISDVSKFLEVDKWMEE [D17V], 1. The value for VFGRGDNISDVSKFLEIDKWMEE [D17I] was 3.52. Turning to VFGRGDNISDVSKFLEFDKWMEE [D17F], the protein stability index is 3.45.

Turning to VFGRGDNISDVSKFLEADKWMEE [D17A], the protein stability index stood at 2.29. The value for VFGRGDNISDVSKFLERDKWMEE [D17R] was 2.25; that for VFGRGDNISDVSKFLEYDKWMEE [D17Y] was 2.73. Take VFGRGDNISDVSKFLESDKWMEE [D17S]: the protein stability index came to 1.52. For VFGRGDNISDVSKFLEDDKLMEE [W20L], the protein stability index came out at 2.54. For VFGRGDNISDVSKFLEDDKGMEE [W20G] the value was 3.92; for VFGRGDNISDVSKFLEDDKNMEE [W20N], 4.72. For VFGRGDNISDVSKFLEDDKKMEE [W20K] the value was 3.78. Turning to VFGRGDNISDVSKFLEDDKSMEE [W20S], the protein stability index came out at 4.28. As for VFGRGDNISDVSKFLEDDKEMEE [W20E], the protein stability index was found to be 4.25. The value for VFGRGDNISDVSKFLEDDKDMEE [W20D] was 4.04. VFGRGDNISDVSKFLEDDKHMEE [W20H]: the protein stability index was 4.34. The value for VFGRGDNISDVSKFLEDDKYMEE [W20Y] was 3.39; that for VFGRGDNISDVSKFLEDDKMMEE [W20M] was 3.12. The value for VFGRGDNISDVSKFLTDDKWMEE [E16T] was 1.66; that for VFGRGDNISDVSKFLLDDKWMEE [E16L] was 2.72; that for VFGRGDNISDVSKFLVDDKWMEE [E16V] was 2.59.

Take VFGRGDNISDVSKFLGDDKWMEE [E16G]: the protein stability index came to 2.4. For VFGRGDNISDVSKFLNDDKWMEE [E16N] the value was 3.11; for VFGRGDNISDVSKFLPDDKWMEE [E16P], 2.12. The value for VFGRGDNISDVSKFLEDDVWMEE [K19V] was 2.27. For VFGRGDNISDVSKFLEDDDWMEE [K19D] the value was 2.63. Regarding VFGRGDNISDVSKFLEDDYWMEE [K19Y], the protein stability index came out at 2.22.

In the case of VFGRGDNISDVSKFLEDDNWMEE [K19N], the protein stability index is 2.35. VFGRGDNISDVSKFLEDDTWMEE [K19T]: the protein stability index amounted to 1.92. For VFGRGDNISDVSKFLEDDIWMEE [K19I] the value was 2.28; for VFGRGDNISDVSKFLEDDEWMEE [K19E], 3.41. As for VFGRGDNISDVSKFLEDDRWMEE [K19R], the protein stability index stood at 2.5.

Turning to VFGRGDNISDVSKFLEDDFWMEE [K19F], the protein stability index is 3.11. The value for VFGRGDNISDVSKFLEDDPWMEE [K19P] was 3.01; that for VFGRGDNISDVSKFLEDDAWMEE [K19A] was 1.27; that for VFGRGDNILDVSKFLEDDKWMEE [S9L] was 3.1. The value for VFGRGDNIGDVSKFLEDDKWMEE [S9G] was 2.06. The value for VFGRGDNIVDVSKFLEDDKWMEE [S9V] was 2.11; that for VFGRGDNIQDVSKFLEDDKWMEE [S9Q] was 2.41; that for VFGRGDNIKDVSKFLEDDKWMEE [S9K] was 1.62.

VFGRGDNIYDVSKFLEDDKWMEE [S9Y]: the protein stability index was 2.3. For VFGRGDNIADVSKFLEDDKWMEE [S9A] the value was 2.31. The value for VFGRGDNITDVSKFLEDDKWMEE [S9T] was 2.43; that for VFGRGDNIFDVSKFLEDDKWMEE [S9F] was 1.63; that for VFGRGDNISDASKFLEDDKWMEE [V11A] was 2.4. In the case of VFGRGDNISDRSKFLEDDKWMEE [V11R], the protein stability index was found to be 2.12. As to VFGRGDNISDNSKFLEDDKWMEE [V11N], the protein stability index amounted to 2.33. On to VFGRGDNISDQSKFLEDDKWMEE [V11Q], for which the protein stability index was determined as 2.87.

Regarding VFGRGDNISDHSKFLEDDKWMEE [V11H], the protein stability index was found to be 2.43. In the case of VFGRGDNISDKSKFLEDDKWMEE [V11K], the protein stability index came to 2.6. On to VFGRGDNISDCSKFLEDDKWMEE [V11C], for which the protein stability index stood at 2.35.

In the case of VFGRGPNISDVSKFLEDDKWMEE [D6P], the protein stability index came to 2.32.

Regarding VFGRGINISDVSKFLEDDKWMEE [D6I], the protein stability index was determined as 2.48. Take VFGRGLNISDVSKFLEDDKWMEE [D6L]: the protein stability index came out at 2.91. The value for VFGRGVNISDVSKFLEDDKWMEE [D6V] was 2.96; that for VFGRGHNISDVSKFLEDDKWMEE [D6H] was 1.85. For VFGRGWNISDVSKFLEDDKWMEE [D6W] the value was 4.02; for VFGRGGNISDVSKFLEDDKWMEE [D6G], 2.08. Regarding VFGRGSNISDVSKFLEDDKWMEE [D6S], the protein stability index is 2.15. For the variant VFGRGENISDVSKFLEDDKWMEE [D6E], the protein stability index is 2.42.

With VFGRGDNISDVSKRLEDDKWMEE [F14R], the protein stability index turned out to be 3.29. For VFGRGDNISDVSKELEDDKWMEE [F14E] the value was 4.92; for VFGRGDNISDVSKVLEDDKWMEE [F14V], 3.01; for VFGRGDNISDVSKALEDDKWMEE [F14A], 4.31.

VFGRGDNISDVSKKLEDDKWMEE [F14K]: the protein stability index was determined as 4.08.

Turning to VFGRGDNISDVSKCLEDDKWMEE [F14C], the protein stability index was 3.8. As to VFGRGDNISDVSKLLEDDKWMEE [F14L], the protein stability index was 2.43. For VFGRGDNISDVSKGLEDDKWMEE [F14G] the value was 2.58; for VFGRGDNISDVSKTLEDDKWMEE [F14T], 4.42; for VFGRGDNISDVSKQLEDDKWMEE [F14Q], 3.34.

As to VFGRGDNISDVSKFLEDWKWMEE [D18W], the protein stability index was found to be 2.04. For VFGRGDNISDVSKFLEDGKWMEE [D18G] the value was 2.06; for VFGRGDNISDVSKFLEDHKWMEE [D18H], 1.49. Turning to VFGRGDNISDVSKFLEDCKWMEE [D18C], the protein stability index came out at 1.47. For VFGRGDNISDVSKFLEDFKWMEE [D18F] the value was 1.66; for VFGRGDNISDVSKFLEDSKWMEE [D18S], 1.31. For VFGRGDNISDVSKFLEDAKWMEE [D18A] the value was 1.3; for VFGRGDNISDVSKFLEDDKWMHE [E22H], 4.54; for VFGRGDNISDVSKFLEDDKWMWE [E22W], 3.33. As to VFGRGDNISDVSKFLEDDKWMYE [E22Y], the protein stability index amounted to 3.73.

Consider VFGRGDNISDVSKFLEDDKWMFE [E22F], for which the protein stability index turned out to be 3.47. As for VFGRGDNISDVSKFLEDDKWMRE [E22R], the protein stability index was determined as 3.32. VFGRGDNISDVSKFLEDDKWMDE [E22D]: the protein stability index was found to be 4.23. The value for VFGRGDNISDVSKFLEDDKWMME [E22M] was 4.28. For VFGRGDNISDVSKFLEDDKWMQE [E22Q] the value was 3.96; for VFGRGDNISDVSKFLEDDKWMSE [E22S], 4.51. The value for VKGRGDNISDVSKFLEDDKWMEE [F2K] was 2.16. As for VSGRGDNISDVSKFLEDDKWMEE [F2S], the protein stability index turned out to be 2.83. The value for VNGRGDNISDVSKFLEDDKWMEE [F2N] was 2.87; that for VGGRGDNISDVSKFLEDDKWMEE [F2G] was 2.79; that for VTGRGDNISDVSKFLEDDKWMEE [F2T] was 3.29.
